The results in this text go back to patent publication US20150044251A1 (Novartis, published 2015).

B1: EsxAB hybrid polypeptide (other)
chain: MAMIKMSPEEIRAKSQSYGQGSDQIRQILSDLTRAQGEIAANWEGQAFSRFEEQFQQLSPKVEKFAQLLEEIKQQLNSTADAVQEQDQQLSNNFGLQASGGGSGGYKGIKADGGKVDQAKQLAAKTAKDIEACQKQTQQLAEYIEGSDWEGQFANKVKDVLLIMAKFQEELVQPMADHQKAIDNLSQNLAKYDTLSIKQGLDRVNP
notes: also called EsxAB monomer
B2: Sta006 (other)
chain: MASCGNQGEKNNKAETKSYKMDDGKTVDIPKDPKRIAVVAPTYAGGLKKLGANIVAVNQQVDQSKVLKDKFKGVTKIGDGDVEKVAKEKPDLIIVYSTDKDIKKYQKVAPTVVVDYNKHKYLEQQEMLGKIVGKEDKVKAWKKDWEETTAKDGKEIKKAIGQDATVSLFDEFDKKLYTYGDNWGRGGEVLYQAFGLKMQPEQQKLTAKAGWAEVKQEEIEKYAGDYIVSTSEGKPTPGYESTNMWKNLKATKEGHIVKVDAGTYWYNDPYTLDFMRKDLKEKLIKAAK
notes: Seen as monomer and dimer in the formulations

In the series “Sta006” the target is B2. The series can be described thus: capillary electrophoresis (SDS-MW) of tetravalent formulation, pH 6, no EDTA, 25 C up to 72 h; attributed to redox reactions.
Description: (§1) Capillary Electrophoresis analyses were performed with a Beckman Coulter PA800 instrument, SDS-MW application. The sample was prepared by mixing 90 μL of the pre-lyophilized formulation with 10 μL of TRIS-SDS buffer.
Series [1] concerns the molecule itself. The series can be described thus: capillary electrophoresis (SDS-MW) of tetravalent formulation, pH 6, no EDTA, 25 C up to 72 h; self-association (disulfide-linked dimer).
Description: as §1
Series [2] deals with the molecule itself. The series is described as follows: SEC-HPLC of tetravalent pre-lyophilized formulation; self-association (dimer peak). For orientation: In gel filtration, larger molecules generally elute earlier.

Turning to B1, the binding result (in the series with Sta006; in series [1]) was “binds” each time.

For the molecule B2, the binding result in series [2] is on record as “binds”.
